# Assay results reported in patent publication US20220347267A1, “METHODS TO IMPROVE PATIENT RESPONSE TO IMMUNE CHECKPOINT INHIBITORS AND FUNCTIONAL TESTS TO PREDICT RESPONSE” (Biomarker Strategies, LLC, priority 2019, published 2022).
# B1: IFNγ: human IFNγ, modulator (10 ng/ml; Sigma Aldrich) (protein, UniProt P01579 24-161, looked up)
# Interferon gamma: QDPYVKEAENLKKYFNAGHSDVADNGTLFLGILKNWKEESDRKIMQSQIVSFYFKLFKNFKDDQSIQKSVETIKEDMNVKFFNSNKKKRDDFEKLTNYSVTDLNVQRKAIHELIQVMAELSPAAKTGKRKRSQMLFRG
# Tests used:
# SKMES1 cells = assay: Western blot of secreted and intact PDL1 in media and lysate; format: cell-based, human; conditions: 10 ng/mL IFNg for 24 h, concentrated media and lysate, antibody clone E1J2J
# Description: Different forms of PDL1 can be expressed at baseline as well as after modulation, and the abundance of each form will impact response to therapy. The two major forms are membrane bound and soluble (secreted or intracellular compartments). The relative ratios of the forms, and their cellular locations, can be changed by a modulator and will require different strategies for optimal ICI therapy. As way of example, the cell line SKMES1 was treated with vehicle or 10 ng/mL IFNg for 24 h. After treatment, media was collected and concentrated using an Amicon ultra 0.5 mL centrifugal filter with a 10 kDa cutoff. The retentate, containing proteins >10 kDa, was recovered in a clean tube at 14000 rpm for 5 min. Simultaneously, lysates of the same cells were made. PDL1 was then detected using 10% Tris-Glycine SDS gels and PVDF membranes. The western blot was carried out using 5% non-fat dry milk in TBST for 1h, followed by incubation with primary antibody against PDL1 (clone E1J2J; raised to the extracellular portion of PDL1) in 2% BSA for overnight, then anti-rabbit HRP secondary antibody before using a chemiluminescent reagent (Bio-Rad). […] Thus, by using westerns where the intact and secreted forms of PDL1 are first resolved by MW and different types of sample/resource material (media vs lysate or blood/plasma vs tumor), the response to therapy can be predicted. […]
# H1650 cells = assay: PD-L1 immunocytochemistry (ICC), IFNγ modulation; format: cell-based; conditions: H1650 (NSCLC); 10 ng/mL human IFNγ, 24h; anti-PD-L1 clone E1L3N
# Description: The human NSCLC cell line SKMES1 was grown in Eagle's Minimum Essential Medium (EMEM; ATCC #30-2003) with 10% Fetal Bovine Serum (FBS) and 1% Penicillin and Streptomycin (P/S). The human NSCLC H460, H1299 and H292 and melanoma cell lines MeWo, HMVII, A375 and CHL1 were grown in RPMI1640 medium with 10% FBS and 1% P/S and 1% sodium pyruvate. Cultured cells were harvested using Accutase, and the cell count and viability were determined using trypan blue dye exclusion. Other methods to collect cells, including scraping or other release can be used.
# Between 15,000 to 20,000 cells were put into each chamber of 8-chambered ICC slides in 200 uL medium with or without 10 ng/mL human IFNγ. […] IFNγ can be readily replaced by other modulators discussed within. […] Cell lines can be readily switched for other sources of cells, including those isolated from xenografts or clinical samples and can be processed manually or using automated methods (e.g. on SnapPath).
# Cells on the chambered slides were stained entirely at RT using the BioGenex RTU Detection System kit components (QD400) unless otherwise indicated. Other detection reagents and methods (e.g. multiplex immunocytochemistry, single of multiplex immunofluorescence, confocal, etc.), including automated staining methods, can be used readily. […] Ki67, T-EGFR or vimentin are provided as examples of positive controls, but others can be readily used. […]
molecule,measurement,setting,value
B1,expression of secreted and intact PDL1,SKMES1 cells,detected the expression of secreted and intact PDL1
same,"Immunocytochemical Score, PD-L1, IFNγ-Treated Cells",H1650 cells,Negative
